We go through one molecule from article PMC8589321 (Science Advances, 2021).

In this assay the target is T1, complex I subunit ND1 (Yarrowia lipolytica) (Yarrowia lipolytica, UniProt Q9B6E8 1-341).
T1 sequence (looked up): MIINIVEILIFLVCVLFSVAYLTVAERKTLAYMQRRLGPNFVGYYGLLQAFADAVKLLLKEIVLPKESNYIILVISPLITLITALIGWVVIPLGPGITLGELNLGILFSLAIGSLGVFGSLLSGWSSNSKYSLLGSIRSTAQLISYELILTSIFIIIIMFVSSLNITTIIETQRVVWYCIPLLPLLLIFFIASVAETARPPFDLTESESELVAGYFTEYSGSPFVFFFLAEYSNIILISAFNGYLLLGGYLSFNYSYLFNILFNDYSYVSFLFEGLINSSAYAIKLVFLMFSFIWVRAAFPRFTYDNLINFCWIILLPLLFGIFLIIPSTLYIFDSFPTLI
Kind of assay: cryo-EM structure.

B1: complex I subunit ND6 (Yarrowia lipolytica) (natural protein, UniProt Q9B6E9 1-185, looked up)
chain: MMYLTYYFIEITIFLAILCTIFIISAKNPMVSILYMIALFVIAAMYLYLIGLGIFSLLYIMIYIGAIAVLFLFIITLLDINSTELSVKSNIRDLPLVLISLIVLTISGLMIYSNDSILINKLLEAFGNDYNTIITQDWFNIENTTLLTTIGNVLLTNNAFILLVLAIVLLLGIIGPISITMKHKE
For B1, the binding result was “binds”.
